Test results taken from patent US20260077065A1, “Compositions and Methods for Assessing Kinase Activity” (The Board of Trustees of the Leland Stanford Junior …, priority 2022, published 2026).
Each block holds one substance with its values, some of them ahead of it.

How the values were obtained:
[1] = molecular target: SmBiT(ΔC3) (NanoBiT small fragment truncated by 3 amino acids at the C-terminus); assay: cell-based or functional assay
[2] = molecular target: ERK substrate (Cdc25C substrate sequence with second phosphorylation site, V-3S); assay: cell-based or functional assay

response (luminescence induction by ERK inhibition) of the reporter with truncated SmBiT [1]: 300%
Substance: LgBiT (NanoBiT large fragment of NanoLuc), ΔN2 (enzyme)

induction of luminescence (ΔC3 V-3S) [2]: 8.8 fold
Substance: WW phospho-binding domain (proline-directed WW phospho-binding domain from Pin1) (from UniProt Q13526 1-54)

induction of luminescence by Vx-11e (bKiMBI) [2]: > 10 fold
Substance: WW phospho-binding domain with F25A mutation (from UniProt Q13526 1-54)
